B1: full-length KAP1 (residues 1-835) (natural protein, human, UniProt Q13263 1-835, looked up)
chain: MAASAAAASAAAASAASGSPGPGEGSAGGEKRSTAPSAAASASASAAASSPAGGGAEALELLEHCGVCRERLRPEREPRLLPCLHSACSACLGPAAPAAANSSGDGGAAGDGTVVDCPVCKQQCFSKDIVENYFMRDSGSKAATDAQDANQCCTSCEDNAPATSYCVECSEPLCETCVEAHQRVKYTKDHTVRSTGPAKSRDGERTVYCNVHKHEPLVLFCESCDTLTCRDCQLNAHKDHQYQFLEDAVRNQRKLLASLVKRLGDKHATLQKSTKEVRSSIRQVSDVQKRVQVDVKMAILQIMKELNKRGRVLVNDAQKVTEGQQERLERQHWTMTKIQKHQEHILRFASWALESDNNTALLLSKKLIYFQLHRALKMIVDPVEPHGEMKFQWDLNAWTKSAEAFGKIVAERPGTNSTGPAPMAPPRAPGPLSKQGSGSSQPMEVQEGYGFGSGDDPYSSAEPHVSGVKRSRSGEGEVSGLMRKVPRVSLERLDLDLTADSQPPVFKVFPGSTTEDYNLIVIERGAAAAATGQPGTAPAGTPGAPPLAGMAIVKEEETEAAIGAPPTATEGPETKPVLMALAEGPGAEGPRLASPSGSTSSGLEVVAPEGTSAPGGGPGTLDDSATICRVCQKPGDLVMCNQCEFCFHLDCHLPALQDVPGEEWSCSLCHVLPDLKEEDGSLSLDGADSTGVVAKLSPANQRKCERVLLALFCHEPCRPLHQLATDSTFSLDQPGGTLDLTLIRARLQEKLSPPYSSPQEFAQDVGRMFKQFNKLTEDKADVQSIIGLQRFFETRMNEAFGDTKFSAVLVEPPPMSLPGAGLSSQELSGGPGDGP
notes: KAP1 (TRIM28), human, UniProt Q13263, full length, residues 1-835; Purified as T4L-RBCC, that is without removal of the His6 tag; a TEV site (ENLYFQG) lies between tag and protein; also called TRIM28; TIF1β; source: also coexpressed with MBP-KRAB in E. coli and co-purified (StrepTrap, Superose 6 SEC); not shown: His6, N-terminal, kept
B2: KAP1 RBCC V114A/Q123A/F125A/K127A (RING domain mutant) (domain or fragment, human, UniProt Q13263 50-413, looked up)
chain: SPAGGGAEALELLEHCGVCRERLRPEREPRLLPCLHSACSACLGPAAPAAANSSGDGGAAGDGTAVDCPVCKQACASADIVENYFMRDSGSKAATDAQDANQCCTSCEDNAPATSYCVECSEPLCETCVEAHQRVKYTKDHTVRSTGPAKSRDGERTVYCNVHKHEPLVLFCESCDTLTCRDCQLNAHKDHQYQFLEDAVRNQRKLLASLVKRLGDKHATLQKSTKEVRSSIRQVSDVQKRVQVDVKMAILQIMKELNKRGRVLVNDAQKVTEGQQERLERQHWTMTKIQKHQEHILRFASWALESDNNTALLLSKKLIYFQLHRALKMIVDPVEPHGEMKFQWDLNAWTKSAEAFGKIVAERP
notes: KAP1 (TRIM28), human, UniProt Q13263, RBCC residues 50-413 with four mutations in the RING domain; also called RBCC with RING domain mutations; source: E. coli BL21 (DE3), purified; not shown: His6, N-terminal, cleaved
B3: KAP1 RBCC (residues 50-413), wild type (domain or fragment, human, UniProt Q13263 50-413, looked up)
chain: B2 chain with A65V, A74Q, A76F, A78K
notes: KAP1 (TRIM28), human, UniProt Q13263, residues 50-413 (RING, B-box 1, B-box 2, coiled coil); rows of m3 with m3 give the step in the assay's format; also called KAP1 RBCC motif; KAP1 TRIM; not shown: His6, N-terminal, cleaved
B4: KAP1 RBCC N235A/A236D/K238A/D239A/F244A/L245A (B-box 2 mutant) (domain or fragment, human, UniProt Q13263 50-413, looked up)
chain: B2 chain with A65V, A74Q, A76F, A78K, N186A, A187D, K189A, D190A, F195A, L196A
notes: KAP1 (TRIM28), human, UniProt Q13263, RBCC residues 50-413 with six mutations in and next to B-box 2; also called RBCC with the B-box 2 mutations; source: E. coli BL21 (DE3), purified; not shown: His6, N-terminal, cleaved
B5: Twin-StrepII-MBP-ZNF93 KRAB (KRAB domain residues 1-71 of ZNF93) (domain or fragment)
chain: not shown
notes: ZNF93, UniProt P35789, KRAB domain residues 1-71; The MBP tag was also required for protein solubility; also called MBP-KRAB; ZNF93 MBP-KRAB; source: E. coli BL21 (DE3), purified (StrepTrap, Superdex 200 SEC); also coexpressed with KAP1 in E. coli and co-purified; not shown: Twin-StrepII, N-terminal, kept; MBP, N-terminal, kept
B6: KAP1 RING-B-box 1 (RB1; residues 50-200) (domain or fragment, human, UniProt Q13263 50-200, looked up)
chain: SPAGGGAEALELLEHCGVCRERLRPEREPRLLPCLHSACSACLGPAAPAAANSSGDGGAAGDGTVVDCPVCKQQCFSKDIVENYFMRDSGSKAATDAQDANQCCTSCEDNAPATSYCVECSEPLCETCVEAHQRVKYTKDHTVRSTGPAKS
notes: KAP1 (TRIM28), human, UniProt Q13263, residues 50-200 (RING and B-box 1); also called RING-B-box 1 fragment; RING-Box-1 fragment; not shown: His6, N-terminal, cleaved

Residue numbers refer to the chain shown, from its start. Names and notes keep the numbering of the source.

Series [1] has as its target B5. Description: SEC-MALS; full-length KAP1 and ZNF93 MBP-KRAB coexpressed in E. coli and co-purified (StrepTrap, SEC); Superose 6 (10/300), 20 mM Hepes pH 8, 0.5 M NaCl, 0.5 mM TCEP, 293 K; total protein 1.2 g/L. The conditions noted are these: both partners purified. On the technique in general: Size exclusion chromatography separates by hydrodynamic size, large species first.

Series [2] concerns the molecule itself. The description is as above.
Series [3] concerns the molecule itself. The series can be described thus: SEC-MALS; KAP1 RBCC at low protein concentration (8.7 µM, 0.35 g/L); monomers to dimer; Superdex 200 (10/300), 20 mM Hepes pH 8, 0.5 M NaCl, 0.5 mM TCEP, 293 K.
Series [4] addresses B3. Description: SPR; Biacore T200, CM5 chip, MBP-KRAB immobilized (~600 RU), KAP1 RBCC flowed over (1:2 dilution series from 34 µM WT, 35 µM mutant), 20 mM Hepes pH 8.0, 0.5 M NaCl, 0.5 mM TCEP, 20 °C; biphasic kinetic model. Conditions: both partners purified.
Series [5] deals with the molecule itself. The series can be described thus: SEC-MALS; RING-B-box 1 (WT at 33 to 610 µM; B-box 1 mutant); monomer to dimer; Superdex 75 (10/300), 20 mM Hepes pH 8, 0.2 M NaCl, 0.5 mM TCEP, 293 K.

Turning to B1, the stoichiometry N – broadly, a count of units in the complex or per binding partner – in series [1] was found to be 2 KAP1 per KRAB. For the same molecule, in series [2], the binding result was “binds”.

In the case of B2, the binding result in series [3] was “binds”.

Take B3: the “stoichiometry N” value in series [3] was 2.

Turning to B4, the binding result in series [3] is on record as “binds”.

Turning to B5, in series [4], the Kd (usually a measure of binding affinity in units of concentration) came to 8 ± 2 nM; the koff (commonly a measure of how fast the partners let go of each other) came to 0.00027 s⁻¹; the kon (in general, a measure of how fast the partners come together) amounted to 36000 M⁻¹ s⁻¹.

Turning to B6, the “stoichiometry N” value in series [5] came out at 2.

The record behind these values is paper PMC6660772, “Structure of KAP1 tripartite motif identifies molecular interfaces required for retroelement silencing” (Proceedings of the National Academy of Sciences of the …, 2019).
